Reference: IntAct's records for PubMed 22405203

B1: Hypoxia-inducible factor prolyl hydroxylase (Caenorhabditis elegans), G5EBV0 (parent)
chain: MSSAPNDDCEIDKGTPSTASLFTTLMLSQPSSSTAVLQCTYCGSSCTSSQLQTCLFCGTVAYCSKEHQQLDWLTHKMICKSLQTSGMVPSNLMPQAAPAVMAPIPPTVSFDDPALTTSLLLSLQNNPILNQTISNFPPTFSITSKTEPEPSIPIQIPQRISSTSTVPFSSEGSAFKPYRNTHVFNSISSESMSSMCTSHEASLEHMSSASLAMFPTSSTAQSDISRLAQVLSLAGDSPASLALVTTSVPSTASTATIPPPATTTSSATSSGKSETITVGKEKIIQTDDPDIQIIETEGGSKPTVSRTRKRPTPSNSADPKINYKDHNKNVVYSTTLQEHQKHLQNRGLALSIHQAMVLRLRYIAEHVIRSLNEFGWAVVDNFLGSDHYKFTAKEIERLYERGLFSPGQLMEAKHKDEFHIKDIRSDHIYWYDGYDGRAKDAATVRLLISMIDSVIQHFKKRIDHDIGGRSRAMLAIYPGNGTRYVKHVDNPVKDGRCITTIYYCNENWDMATDGGTLRLYPETSMTPMDIDPRADRLVFFWSDRRNPHEVMPVFRHRFAITIWYMDKSERDKALAKGKESDAACASKKENDPTSSSLNSLIGSLLRPRKNPSTHDLSKLDLRLFPSTSSDPALVSAADEDRVDISADFQSTSSLAHPESTDSGVSLSTFNVAHNHMERTTSLQSISDHFRSERSHERRSSTSSDQDLDEGLPPPPSTNPEYYI
partner: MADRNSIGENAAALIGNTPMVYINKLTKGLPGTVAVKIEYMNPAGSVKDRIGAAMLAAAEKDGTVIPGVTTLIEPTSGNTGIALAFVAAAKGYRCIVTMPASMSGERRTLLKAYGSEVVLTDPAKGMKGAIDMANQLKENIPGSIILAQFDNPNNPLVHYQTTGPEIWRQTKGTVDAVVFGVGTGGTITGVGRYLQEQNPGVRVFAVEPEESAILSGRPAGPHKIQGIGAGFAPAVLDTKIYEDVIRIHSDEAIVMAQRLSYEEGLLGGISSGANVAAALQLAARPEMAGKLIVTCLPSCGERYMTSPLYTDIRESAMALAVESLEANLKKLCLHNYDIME

Variants of: B1
Details: with cysk1_caeel cysl-1, Q93244

| Variant | effect of a mutation on the interaction |
| --- | --- |
| E720K | disrupting interaction strength |

Variants of: B1
Details: with cysk1_caeel cysl-1, Q93244
Remark: another data set of the same source

| Variant | effect of a mutation on the interaction |
| --- | --- |
| E720K | decreasing interaction strength |
| I723A | decreasing interaction strength |
